Source: patent US6369030 (ROCKFELLER UNIVERSITY, dated 2002)

Columns and labels:
[1] = molecular target: p300 histone acetyltransferase (full length, purified recombinant) (UniProt Q09472 2-2414, limits assumed); assay: cell-based or functional assay
[2] = molecular target: PCAF histone acetyltransferase (full length, purified recombinant) (UniProt Q92831 1-832, limits assumed); assay: cell-based or functional assay
Chain of PCAF histone acetyltransferase (full length, purified recombinant) (Q92831 whole entry): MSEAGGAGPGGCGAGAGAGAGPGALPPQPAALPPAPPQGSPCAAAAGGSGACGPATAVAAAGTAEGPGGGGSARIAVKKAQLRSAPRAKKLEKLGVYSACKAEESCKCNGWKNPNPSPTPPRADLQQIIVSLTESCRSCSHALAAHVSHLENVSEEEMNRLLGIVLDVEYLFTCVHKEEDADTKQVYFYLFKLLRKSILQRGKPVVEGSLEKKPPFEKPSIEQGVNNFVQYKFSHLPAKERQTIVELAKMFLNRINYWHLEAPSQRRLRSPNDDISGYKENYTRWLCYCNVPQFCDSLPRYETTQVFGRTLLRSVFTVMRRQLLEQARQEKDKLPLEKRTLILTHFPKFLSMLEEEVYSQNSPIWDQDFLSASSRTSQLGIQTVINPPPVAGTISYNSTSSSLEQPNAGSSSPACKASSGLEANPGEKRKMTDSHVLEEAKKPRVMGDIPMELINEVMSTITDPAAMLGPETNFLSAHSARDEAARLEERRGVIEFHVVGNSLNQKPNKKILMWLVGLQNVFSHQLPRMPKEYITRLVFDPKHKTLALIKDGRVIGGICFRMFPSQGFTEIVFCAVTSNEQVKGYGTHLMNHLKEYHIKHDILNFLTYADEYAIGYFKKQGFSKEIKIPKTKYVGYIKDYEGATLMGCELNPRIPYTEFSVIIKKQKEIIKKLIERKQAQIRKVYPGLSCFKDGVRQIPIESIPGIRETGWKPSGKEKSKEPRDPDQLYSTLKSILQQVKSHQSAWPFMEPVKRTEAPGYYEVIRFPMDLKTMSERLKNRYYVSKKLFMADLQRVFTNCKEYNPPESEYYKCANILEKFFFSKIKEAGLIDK

Chain of p300 histone acetyltransferase (full length, purified recombinant) (Q09472 2-2414 limits assumed): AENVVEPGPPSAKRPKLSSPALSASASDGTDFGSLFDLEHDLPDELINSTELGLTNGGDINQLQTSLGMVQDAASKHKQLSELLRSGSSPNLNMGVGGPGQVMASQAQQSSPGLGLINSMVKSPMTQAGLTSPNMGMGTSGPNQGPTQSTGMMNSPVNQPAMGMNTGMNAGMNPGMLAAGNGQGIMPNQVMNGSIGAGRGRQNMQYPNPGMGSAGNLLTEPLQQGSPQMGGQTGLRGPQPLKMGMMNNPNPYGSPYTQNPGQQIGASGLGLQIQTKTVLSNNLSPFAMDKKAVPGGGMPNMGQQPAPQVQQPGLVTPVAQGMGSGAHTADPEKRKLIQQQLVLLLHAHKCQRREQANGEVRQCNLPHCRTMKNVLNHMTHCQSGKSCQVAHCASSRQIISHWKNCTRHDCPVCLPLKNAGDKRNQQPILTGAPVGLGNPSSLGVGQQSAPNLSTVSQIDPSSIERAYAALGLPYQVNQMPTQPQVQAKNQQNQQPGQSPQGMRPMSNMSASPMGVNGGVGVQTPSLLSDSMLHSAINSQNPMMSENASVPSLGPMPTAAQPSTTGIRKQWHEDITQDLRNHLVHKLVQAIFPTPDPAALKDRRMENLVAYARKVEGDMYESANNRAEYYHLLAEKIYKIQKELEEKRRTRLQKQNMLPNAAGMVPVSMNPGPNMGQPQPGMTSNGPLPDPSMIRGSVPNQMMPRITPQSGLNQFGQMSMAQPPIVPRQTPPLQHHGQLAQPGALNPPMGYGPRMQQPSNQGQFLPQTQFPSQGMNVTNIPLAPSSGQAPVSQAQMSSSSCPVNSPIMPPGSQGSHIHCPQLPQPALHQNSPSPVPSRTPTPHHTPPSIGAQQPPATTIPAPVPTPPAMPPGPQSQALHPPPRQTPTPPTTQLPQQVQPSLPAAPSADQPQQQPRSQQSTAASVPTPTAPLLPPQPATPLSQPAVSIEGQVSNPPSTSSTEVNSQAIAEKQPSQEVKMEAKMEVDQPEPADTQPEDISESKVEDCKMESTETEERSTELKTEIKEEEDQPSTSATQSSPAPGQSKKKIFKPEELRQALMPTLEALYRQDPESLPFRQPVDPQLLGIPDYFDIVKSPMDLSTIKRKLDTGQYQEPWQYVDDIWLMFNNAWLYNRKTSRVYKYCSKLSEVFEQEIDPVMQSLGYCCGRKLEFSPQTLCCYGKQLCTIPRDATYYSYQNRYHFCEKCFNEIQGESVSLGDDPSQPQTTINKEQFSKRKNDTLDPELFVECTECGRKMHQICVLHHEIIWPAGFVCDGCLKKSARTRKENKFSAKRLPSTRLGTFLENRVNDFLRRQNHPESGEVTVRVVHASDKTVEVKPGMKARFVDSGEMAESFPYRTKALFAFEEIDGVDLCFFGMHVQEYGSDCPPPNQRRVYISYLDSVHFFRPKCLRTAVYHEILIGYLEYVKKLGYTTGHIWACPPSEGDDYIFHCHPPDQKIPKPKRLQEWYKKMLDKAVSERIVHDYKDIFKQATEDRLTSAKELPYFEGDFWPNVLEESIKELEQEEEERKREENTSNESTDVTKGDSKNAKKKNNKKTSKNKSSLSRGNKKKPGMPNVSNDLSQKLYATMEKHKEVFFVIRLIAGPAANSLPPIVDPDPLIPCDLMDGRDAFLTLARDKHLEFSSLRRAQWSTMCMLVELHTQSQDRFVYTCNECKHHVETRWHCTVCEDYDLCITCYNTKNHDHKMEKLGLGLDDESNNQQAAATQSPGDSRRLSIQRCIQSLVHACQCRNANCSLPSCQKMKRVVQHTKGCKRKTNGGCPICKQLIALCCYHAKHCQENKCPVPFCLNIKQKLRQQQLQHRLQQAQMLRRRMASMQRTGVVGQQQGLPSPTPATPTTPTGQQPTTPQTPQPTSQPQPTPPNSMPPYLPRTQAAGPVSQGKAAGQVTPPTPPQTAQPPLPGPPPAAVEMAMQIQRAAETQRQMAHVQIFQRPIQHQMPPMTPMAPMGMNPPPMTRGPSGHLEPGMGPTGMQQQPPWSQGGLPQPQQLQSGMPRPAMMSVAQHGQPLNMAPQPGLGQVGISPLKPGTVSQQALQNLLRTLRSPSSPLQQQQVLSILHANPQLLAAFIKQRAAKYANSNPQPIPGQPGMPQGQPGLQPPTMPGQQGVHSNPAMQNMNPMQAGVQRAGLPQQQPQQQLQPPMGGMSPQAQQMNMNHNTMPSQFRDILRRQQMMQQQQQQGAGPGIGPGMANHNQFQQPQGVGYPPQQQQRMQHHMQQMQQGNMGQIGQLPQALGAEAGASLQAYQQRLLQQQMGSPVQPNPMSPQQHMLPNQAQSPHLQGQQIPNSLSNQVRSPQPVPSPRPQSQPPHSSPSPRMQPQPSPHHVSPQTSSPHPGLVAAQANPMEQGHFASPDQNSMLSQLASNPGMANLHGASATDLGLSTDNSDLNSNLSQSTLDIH

- IC50 with p300 (µM), HAT activity inhibition, mixed histones [1]: > 30 µM
- IC50 with PCAF (µM), HAT activity inhibition, mixed histones [2]: > 20 µM
Binder: Ac-GGKAPRK-NH2 (also: further groups not given here) [H3-CoA-7]
